Details: Bacillus amyloliquefaciens, pH 6.3, 25 °C, Fluorescence, MES 450 mM, reversible: yes, whole UniProt chain shown

B1: Ribonuclease wild type, P00648 (protein)
chain: MMKMEGIALKKRLSWISVCLLVLVSAAGMLFSTAAKTETSSHKAHTEAQVINTFDGVADYLQTYHKLPDNYITKSEAQALGWVASKGNLADVAPGKSIGGDIFSNREGKLPGKSGRTWREADINYTSGFRNSDRILYSSDWLIYKTTDHYQTFTKIR
- denaturant m value (GdnHCl): 4.4 kcal/mol/M
- denaturant midpoint (higher = more stable) (GdnHCl): 2 M
- unfolding free energy (GdnHCl): 8.8 kcal/mol
- denaturant m value (Urea): 1.92 kcal/mol/M
- denaturant midpoint (higher = more stable) (Urea): 4.58 M
- unfolding free energy (Urea): 8.79 kcal/mol

Source: FireProtDB (doi:10.1021/bi00067a022)
